Results on three molecules are retold here after patent publication JP2023014062A (dated 2023).

For assay [1], the target named is T1, SARS-CoV-2(従来株(武漢株))のSタンパク質のRBDタンパク質 (SARS-CoV-2(従来株(武漢株)), UniProt P0DTC2 322-536).
T1 construct: range 322-536
As to the kind of experiment: X-ray crystal structure of the RBD-Fab complex.

In assay [2] the target is T1, SARS-CoV-2(従来株(武漢株))のSタンパク質のRBDタンパク質. As to the kind of experiment: ELISA, RBD coated at 2 μg/ml, Expi293 culture supernatant, HRP anti-human IgG.

B1: 抗体NCV2SG53(Fab) (Fab, V domains shown)
VH: QVQMVESGGGLVRPGGSLRLSCAASGFTFSDYYMSWIRQAPGKGLEWISYISSSGSSMNYADSVKGRFTISRDNAKNSLFLQMNSLRAEDTAVYYCAREFDLTKIIMVPPYWGQGTLVTVSS
VL: AIQLTQSPSSLSASVGDRVTITCRASQGISSYLAWYQQKPGKAPKVLIYAASTLQSGVPSRFSGSGSGTDFTLTISSLQPEDFATYYCQQLKSYPLTFGGGTKVEIT
notes: also called Fab(抗体NCV2SG53)
Regarding B1, in assay [1], the binding result was “binds”.

B2: 抗体NCV2SG53 (antibody, V domains shown)
VH: QVQMVESGGGLVRPGGSLRLSCAASGFTFSDYYMSWIRQAPGKGLEWISYISSSGSSMNYADSVKGRFTISRDNAKNSLFLQMNSLRAEDTAVYYCAREFDLTKIIMVPPYWGQGTLVTVSS
VL: AIQLTQSPSSLSASVGDRVTITCRASQGISSYLAWYQQKPGKAPKVLIYAASTLQSGVPSRFSGSGSGTDFTLTISSLQPEDFATYYCQQLKSYPLTFGGGTKVEIT
Take B2: in assay [2], the binding result was “binds”.

B3: 抗体NCV2SG48(Fab) (Fab, V domains shown)
VH: EVQLVESGGGLIQPGGSLRLSCAASGFIVSRNYMNWVRQAPGKGLEWVALIYSGGSTFYADSVKGRFTISRDNSKNTLYLQMNSLRAEDTAVYYCARDLVVYGLDYWGQGTLVTVSS
VL: AIQLTQSPSSLSASVGDRVTITCRASQGISSHLAWYQQKPGKAPKLLIFAASTLQSGVPSRFSGSGSGTDFTLTISSLQPEDFATYYCQHLNSNPPITFGQGTRLEIK
notes: also called Fab(抗体NCV2SG48)
On to B3, for which, in assay [1], the binding result was “binds”.
